Residue numbers refer to the chain shown, from its start. Names and notes keep the numbering of the source. Like-named read-outs stand apart in the source and are kept apart here. Ends that are not written are not given here.
Assays:
[1] = target: ErbB-3 receptor-Ig fusion (human) (UniProt P21860); experiment: phage ELISA, soluble ErbB-3-Ig as competitor
[2] = target: ErbB-4 receptor-Ig fusion (human) (UniProt Q15303); experiment: phage ELISA, soluble ErbB-4-Ig as competitor
[3] = target: ErbB-3-Ig; experiment: Inhibition of 125I-HRG-β1 177-244 binding to ErbB-3-Ig by soluble protein
Description: (§1) The affinities of the Trx-variant fusions for ErbB receptor-Ig fusions were determined by measuring inhibition of ^125 I-HRG-β1 177-244 binding to ErbB-3-Ig and ErbB-4-Ig. Receptor fusions were coated on plates (Nunc Maxisorp C™ break-apart strip wells, Inter Med, Denmark) via anti-human IgG, as described in Example 1 for phage ELISA. Binding assays were carried out with a constant amount of ^125 I-HRG-β1 177-244 (100-300 pM) and varying concentrations (100 pM-4 μM) of unlabeled Trx-variant fusion. Following incubation for 1-3 h at room temperature, plates were washed, and the amount of bound ^125 I-HRG-β1 177-244 in each well was counted on a gamma counter (Isodata, ICN Biomedic Systems, Huntsville, Ala.). For the ErbB-3 binding assays, the blocking buffer was TBST (0.025 M Tris-HC1 [pH 7.5], 0.15 M NaCl, 0.02% Tween 20™) containing 1% BSA; the binding buffer was RPMI 1640™ cell culture media (Gibco-BRL, Gaithersburg, Md.) containing 2 mM glutamine, 100 U/mL penicillin, 100 μg/mL streptomycin, 10 mM HEPES buffer (pH 7.2), 0.2% BSA; and the wash buffer was TBST. For the ErbB-4 binding assays, PBS containing 1% BSA was used as the blocking and binding buffers, and the wash buffer was PBS containing 0.05% Tween 20™.

[4] = target: ErbB-4-Ig; experiment: Inhibition of 125I-HRG-β1 177-244 binding to ErbB-4-Ig by soluble protein
Description: as §1

[5] = target: ErbB-3 receptor-Ig fusion (human) (UniProt P21860); experiment: phage ELISA, ratio to wild-type HRG-β1 177-244 on phage
[6] = target: ErbB-4 receptor-Ig fusion (human) (UniProt Q15303); experiment: phage ELISA, ratio to wild-type HRG-β1 177-244 on phage; clone selected on ErbB-4-Ig with ErbB-3-Ig counter-selection
[7] = target: ErbB-4 receptor-Ig fusion (human) (UniProt Q15303); experiment: phage ELISA, ratio to wild-type HRG-β1 177-244 on phage; clone selected on ErbB-4-Ig
[8] = target: ErbB-2/3 receptor-Ig fusion (ErbB-2/3-Ig); experiment: Phage ELISA, competition with soluble ErbB-2/3-Ig; assay type: binding; details: EGF-like domain displayed monovalently on phage as pIII fusion; soluble ErbB-2/3-Ig competing half of the phage off the plate; average of duplicate experiments
From the text: To produce phage displaying the domains, mutagenesis reaction mixtures were electrotransformed into XL1-Blue™ cells (Stratagene, Inc., La Jolla, Calif.), according to the manufacturer's protocol. The transformed cells were then infected with 10^11 plaque-forming units (pfu) M13K07 helper phage (Promega Corp., Madison, Wis.). […] The phage were resuspended in phosphate-buffered saline (PBS: 0.01 M sodium phosphate, 0.1 M NaCl, pH 7.5).
Microtiter plates (Nunc Maxisorp™ 96-well plates, Inter Med, Denmark) for phage ELISA were prepared as follows. The wells were precoated overnight with 0.5 μg of rabbit anti-human IgG (Fc gamma fragment-specific) antibodies (Jackson Immunoresearch, West Grove, Pa.) in 100 μL 50 mM NaCO3 (pH 9.6). The wells were blocked for 30 minutes (min) with 200 μL PBS containing 0.1% bovine serum albumin (BSA) and rinsed with wash buffer (PBS containing 0.05% Tween 20™). The wells were then coated with 0.1 μg ErbB-2/3-Ig in binding buffer (PBS, 0.1% BSA, 0.05% Tween 20™) for 1 h, and washed again.
Following incubation for 2 h at room temperature, plates were washed extensively and treated with a 1:900 dilution of anti-M13 horseradish peroxidase conjugate (Pharmacia, Piscataway, N.J.) for 20 min. The amount of phage binding was determined by assaying horseradish peroxidase activity using o-phenylenediamine dihydrochloride) substrate solution (Sigma Chemical Company, St. Louis, Mo.).

[9] = target: ErbB-2/3 receptor-Ig fusion (human) (UniProt P04626); experiment: phage ELISA, soluble ErbB-2/3-Ig as competitor
[10] = target: ErbB-3 receptor-Ig fusion (human) (UniProt P21860); experiment: displacement of 125I-HRG-β1 177-244 from ErbB-3-Ig
[11] = target: ErbB-4 receptor-Ig fusion (human) (UniProt Q15303); experiment: displacement of 125I-HRG-β1 177-244 from ErbB-4-Ig
[12] = soluble HRG-β1 EGF variant free of pIII, inhibition of 125I-HRG binding, read-out: ErbB-3-Ig EC50
[13] = soluble HRG-β1 EGF variant free of pIII, inhibition of 125I-HRG binding, read-out: ErbB-4-Ig EC50

## HRG-β1 177-244 H178A on phage (ligand)
[1]
  EC50: > 1000 nM
[2]
  EC50: 32 nM

## HRG-β1 177-244 G218A on phage (ligand)
[1]
  EC50: > 1000 nM
[2]
  EC50: > 1000 nM

## A3: HRG-β1 EGF: S177W, H178E, K181P
[3]; [12]
  EC50: 4.3 ± 0.2 nM
[4]; [13]
  EC50: 2.1 ± 0.1 nM

## HRG-β1 177-244 F189A on phage (ligand)
[1]
  EC50: 892 nM
[2]
  EC50: 106 nM

## HRG-β1 177-244 H178L on phage (ligand)
[5]
  EC50 Mut/Wt: 1.4
[6]
  EC50 Mut/Wt: 1.2

## HRG-β1 177-244 G193A on phage (ligand)
[1]
  EC50: > 1000 nM
[2]
  EC50: 23 nM

## HRG-β1 177-244 N192A on phage (ligand)
[1]
  EC50: > 1000 nM
[2]
  EC50: 188 nM

## HRG-β1 177-244 K200A on phage (ligand)
[1]
  EC50: 20 nM
[2]
  EC50: 25 nM

## HRG-β1 177-244 S177A on phage (ligand)
[1]
  EC50: 67 nM
[2]
  EC50: 83 nM

## HRG-β1 177-244 R220A on phage (ligand)
[1]
  EC50: > 1000 nM
[2]
  EC50: > 1000 nM

## HRG-β1 177-244 Y224A on phage (ligand)
[1]
  EC50: 865 nM
[2]
  EC50: 51 nM

## HRG-β1 177-244 H178E on phage (ligand)
[5]
  EC50 Mut/Wt: 9.5
[7]
  EC50 Mut/Wt: 1.7

## HRG-β1 177-244 K211A on phage (ligand)
[1]
  EC50: > 1000 nM
[2]
  EC50: 59 nM

## HRG-β1 177-244 R207P on phage (ligand)
[5]
  EC50 Mut/Wt: 6.1
[6]
  EC50 Mut/Wt: 1.3

## HRG-β1 177-244 P205A on phage (ligand)
[1]
  EC50: 22 nM
[2]
  EC50: 8 nM

## HRG-β1 177-244 E195A on phage (ligand)
[1]
  EC50: > 1000 nM
[2]
  EC50: 24 nM

## HRG7: HRG-β1 177-228 fused to pIII 247 (SHLVKCAEKEKTFCVNGGECFMVKDLSNPSRYLCKCPNEFTGDRCQNYVMAS; cysteine pairing not given here; also: fused to pIII 247)
[8]
  EC50: 42 nM

## HRG-β1 177-244 E215A on phage (ligand)
[1]
  EC50: 51 nM
[2]
  EC50: 32 nM

## HRG-β1 177-244 G194A on phage (ligand)
[1]
  EC50: 500 nM
[2]
  EC50: 65 nM

## HRG-β1 177-244 H178L with Met in place of 228-231, on phage (ligand)
[5]
  EC50 Mut/Wt: 6.4
[6]
  EC50 Mut/Wt: 1.7

## HRG-β1 177-244 H178E L179V on phage (ligand)
[5]
  EC50 Mut/Wt: 0.8
[6]
  EC50 Mut/Wt: 1.7

## HRG-β1 177-244 F229A on phage (ligand)
[1]
  EC50: 6 nM
[2]
  EC50: > 1000 nM

## HRG-β1 177-244 L179V on phage (ligand)
[5]
  EC50 Mut/Wt: 1.5
[7]
  EC50 Mut/Wt: 1.6

## HRG-β1 177-244 L179A on phage (ligand)
[1]
  EC50: 1000 nM
[2]
  EC50: 56 nM

## HRG-β1 177-244 T217A on phage (ligand)
[1]
  EC50: > 1000 nM
[2]
  EC50: 14.2 nM

## HRG-β1 177-244 F216A on phage (ligand)
[1]
  EC50: 500 nM
[2]
  EC50: > 1000 nM

## F1: single library F variant: Met198Lys and Met226Ile
[3]; [12]
  EC50: 0.6 ± 0.04 nM
[4]; [13]
  EC50: 0.26 ± 0.011 nM

## HRG-β1 177-244 H178D L179V on phage (ligand)
[5]
  EC50 Mut/Wt: 2.2
[6]
  EC50 Mut/Wt: 2

## HRG-β1 177-244 H178W with Met in place of 228-231, on phage (ligand)
[5]
  EC50 Mut/Wt: 1.2
[7]
  EC50 Mut/Wt: 1.7

## HRG-β1 177-244 H178T L179M on phage (ligand)
[5]
  EC50 Mut/Wt: 1.4
[6]
  EC50 Mut/Wt: 1.6

## HRG-β1 177-244 R207A on phage (ligand)
[1]
  EC50: > 1000 nM
[2]
  EC50: 30 nM

## HRG6: HRG-β1 177-227 fused to pIII 247 (SHLVKCAEKEKTFCVNGGECFMVKDLSNPSRYLCKCPNEFTGDRCQNYVMA; cysteine pairing not given here; also: fused to pIII 247)
[8]
  EC50: 40 nM

## HRG-β1 177-244 L179M on phage (ligand)
[5]
  EC50 Mut/Wt: 1.2
[7]
  EC50 Mut/Wt: 1.5

B1: HRG6 (ligand)
chain: SHLVKCAEKEKTFCVNGGECFMVKDLSNPSRYLCKCPNEFTGDRCQNYVMA
[9]
  EC50: 40 nM

B2: TH-WT (thioredoxin fused at its C-terminus to wild-type HRG-β1 146-244) (ligand)
chain: DDDDKAYVSSESPIRISVSTEGANTSSSTSTSTTGTSHLVKCAEKEKTFCVNGGECFMVKDLSNPSRYLCKCPNEFTGDRCQNYVMASFYKHLGIEFMEAEELY
[3]; soluble thioredoxin (Trx) fusion, inhibition of 125I-HRG-β1 177-244 binding, read-out: Sol EC50, binding to the ErbB-3 Receptor
  EC50: 47.6 nM
[4]; soluble thioredoxin (Trx) fusion, inhibition of 125I-HRG-β1 177-244 binding, read-out: Sol EC50, binding to the ErbB-4 Receptor
  EC50: 15.4 nM
[10]
  EC50: 47.6 nM
[11]
  EC50: 15.4 nM

B3: Trx-HRG-β1 146-244 F229A fusion (ligand)
chain: B2 chain with F89A
[10]
  EC50: 177 nM
[11]
  EC50: 89.9 nM

B4: HRG5 (ligand)
chain: YVSSESPIRISVSTEGANTSSSTSTSTTGTSHLVKCAEKEKTFCVNGGECFMVKDLSNPSRYLCKCPNEFTGDRCQNYVMASFYKHLGIEFMEAEELY
[8]
  EC50: 4.7 nM
[9]
  EC50: 4.7 nM

B5: HRG4 (ligand)
chain: YVSSESPIRISVSTEGANTSSSTSTSTTGTSHLVKCAEKEKTFCVNGGECFMVKDLSNPSRYLCKCPNEFTGDRCQNYVMA
[8]
  EC50: 38 nM
[9]
  EC50: 38 nM

B6: HRG11 (ligand)
chain: SHLVKCAEKEKTFCVNGGECFMVKDLSNPSRYLCKCPNEFTGDRCQNYVMASFYGGGSGGG
[9]
  EC50: 19 nM

B7: HRG11: HRG-β1 177-230 attached to pIII 247 through GGGSGGG linkage (protein)
chain: B6 chain
modifications: also: attached to pIII 247 through GGGSGGG linkage
notes: HRG-β1 177-230 attached to pIII 247 through GGGSGGG linkage
[8]
  EC50: 19 nM

B8: HRG7 (ligand)
chain: SHLVKCAEKEKTFCVNGGECFMVKDLSNPSRYLCKCPNEFTGDRCQNYVMAS
[9]
  EC50: 42 nM

Reference: patent US6136558A, “Heregulin variants” (Genentech, Inc., priority 1998, dated 2000)
